In patent US20230052369A1 (Zymeworks, published 2023):

Experiments:
[1] = target: T1, purified human monomeric 4-1BB (human, UniProt Q07011 24-186); assay: SPR, Ab captured, monomeric 4-1BB injected
T1 construct: the assay used the 4-1BB part released by Factor Xa with the Fc removed; also called h4-1BB; human 4-1BB
Protocol: (§1) The anti-human Fc surface was prepared on a CMS Series S sensorchip by standard amine coupling methods as described by the manufacturer (GE Healthcare). Briefly, immediately after EDC/NHS activation, a 25 μg/mL solution of anti-human Fc in 10 mM NaOAc pH 4.5 was injected at a flow rate of 10 μL/min for 420 s until approximately 2000 resonance units (RUs) were immobilized on all four flow cells. The remaining active groups were quenched by a 420 s injection of 1M ethanolamine at 10 μL/min.
(§2) Antibodies for analysis were captured onto the anti-Fc surface by injecting 5 μg/mL solutions at a flow rate of 10 μL/min for 60 s. Using single-cycle kinetics, five concentrations of a two-fold dilution series of 4-1BB starting at 40 nM (for both supernatant and purified antibody runs) with a blank buffer control were sequentially injected at 40 μL/min for 180 s with a 600 s dissociation phase, resulting in a set of sensorgrams with a buffer blank reference. Experiments were performed at a constant temperature of 25° C. The anti-human Fc surfaces were regenerated to prepare for the next injection cycle by one pulse of 10 mM Glycine/HCl pH 1.5 for 120 s at 40 μL/min. Blank-subtracted sensorgrams were analyzed using Biacore™ T200 Evaluation Software v3.0. The blank-subtracted sensorgrams were then fit to the 1:1 Langmuir binding model.
Protein material post protein-A or SEC was assessed for binding to human 4-1BB.

[2] = target: T1, purified human monomeric 4-1BB; assay: SPR, Ab captured, monomeric 4-1BB injected; remark: listed apart in the source
Protocol: as §1, §2
Variants purified by SEC were assessed for binding to human 4-1BB.

[3] = target: T2, full-length human FRα, on 293E cells (human, UniProt P15328 25-234); assay: flow cytometry, 293E cells expressing FRα
T2 construct: also called folate receptor alpha; FOLR1
T2 sequence (P15328 25-234 limits assumed): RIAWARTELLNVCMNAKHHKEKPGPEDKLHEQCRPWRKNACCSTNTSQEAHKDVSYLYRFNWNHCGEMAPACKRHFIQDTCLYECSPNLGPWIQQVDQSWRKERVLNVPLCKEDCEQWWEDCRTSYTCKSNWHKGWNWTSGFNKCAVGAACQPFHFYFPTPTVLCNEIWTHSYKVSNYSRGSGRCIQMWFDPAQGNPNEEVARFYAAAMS
Protocol: Antibodies were diluted in 50 μl FB (PBS 2% FCS) 1:3 from stock in wells of a 96 V-well plate, and cells added on top. The cells were then left on ice for 30 minutes for the antibodies to bind. The cells were then washed twice in FB, and incubated in 50 μl FB containing 2 μg/ml goat anti-human Alexa647 antibody (Jackson Immunoresearch). The cells were then left on ice for a further 20 minutes, washed twice in FB, resuspended in 100 μl FB and analyzed on a BD Fortessa™ X20. The subsequent data files were analyzed using FlowJo™ and Prism 7 (GraphPad).

T1 sequence (Q07011 other isoform, or with tags, fused parts or gaps limits assumed): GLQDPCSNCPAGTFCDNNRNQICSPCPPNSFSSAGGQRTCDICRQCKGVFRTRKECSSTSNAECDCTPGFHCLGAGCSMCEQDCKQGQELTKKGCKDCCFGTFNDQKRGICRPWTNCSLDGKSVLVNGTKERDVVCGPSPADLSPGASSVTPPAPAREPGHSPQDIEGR

B1: v28725 (antibody, human IgG1, kappa, L234A L235A, V domains shown)
VH: EVQLVESGGGLIQPGGSLRLSCAVSGFSLTTYAISWVRQAPGKGLEWLGIIWPGGGTNYADSVKGRFTISKDNSKNTLYLQMNSLRAEDTAVYYCARGAGTWYFDVWGQGTLVTVSS
VL: DIQMTQSPSSLSASVGDRVTITCSASQGISNYLNWYQQKPGKAPKLLIYYTSSLHSGVPSRFSGSGSGTDYTLTISSLQPEDIATYYCQQYSKFPWTFGQGTKLEIKR
notes: also called humanized 1C8 H7L2
binding result [1]: no binding

B2: v28719 (antibody, human IgG1, kappa, L234A L235A, V domains shown)
VH: EVQLVESGGGLIQPGGSLRLSCAASGFSLTTYAISWVRQAPGKGLEWVSIIWPGGGTNYADSVKGRFTISRDNSKNTLYLQMNSLRAEDTAVYYCARGAGTWYFDVWGQGTLVTVSS
VL: DIQMTQSPSSLSASVGDRVTITCSASQGISNYLNWYQQKPGKAPKLLIYYTSSLHSGVPSRFSGSGSGTDYTLTISSLQPEDIATYYCQQYSKFPWTFGQGTKLEIKR
notes: also called humanized 1C8 H5L2
binding result [1]: no binding

B3: v28722 (antibody, human IgG1, kappa, L234A L235A, V domains shown)
VH: EVQLVESGGGLIQPGGSLRLSCAVSGFSLTTYAISWVRQAPGKGLEWLGIIWPGGGTNYADSVKGRFTISRDNSKNTLYLQMNSLRAEDTAVYYCARGAGTWYFDVWGQGTLVTVSS
VL: DIQMTQSPSSLSASVGDRVTITCSASQGISNYLNWYQQKPGKAPKLLIYYTSSLHSGVPSRFSGSGSGTDYTLTISSLQPEDIATYYCQQYSKFPWTFGQGTKLEIKR
notes: also called humanized 1C8 H6L2
binding result [1]: no binding

B4: v28720 (antibody, human IgG1, kappa, L234A L235A, V domains shown)
VH: EVQLVESGGGLIQPGGSLRLSCAASGFSLTTYAISWVRQAPGKGLEWVSIIWPGGGTNYADSVKGRFTISRDNSKNTLYLQMNSLRAEDTAVYYCARGAGTWYFDVWGQGTLVTVSS
VL: DIQMTQSPSSLSASVGDRVTITCSASQGISNYLNWYQQKPGKTVKLLIYYTSSLHSGVPSRFSGSGSGTDYTLTISSLQPEDIATYYCQQYSKFPWTFGQGTKLEIKR
notes: also called humanized 1C8 H5L3
binding result [1]: no binding

B5: v28721 (antibody, human IgG1, kappa, L234A L235A, V domains shown)
VH: EVQLVESGGGLIQPGGSLRLSCAVSGFSLTTYAISWVRQAPGKGLEWLGIIWPGGGTNYADSVKGRFTISRDNSKNTLYLQMNSLRAEDTAVYYCARGAGTWYFDVWGQGTLVTVSS
VL: DIQMTQSPSSLSASVGDRVTITCSASQGISNYLNWYQQKPGKAPKLLIYYTSSLHSGVPSRFSGSGSGTDFTFTISSLQPEDIATYYCQQYSKFPWTFGQGTKVEIKR
notes: also called humanized 1C8 H6L1
binding result [1]: no binding

B6: v28717 (antibody, human IgG1, kappa, L234A L235A, V domains shown)
VH: EVQLVESGGGLIQPGGSLRLSCAASGFSLTTYAISWVRQAPGKGLEWVSIIWPGGGTNYADSVKGRFTISRDNSKNTLYLQMNSLRAEDTAVYYCARGAGTWYFDVWGQGTLVTVSS
VL: DIQMTQSPSSLSASVGDRVTITCSASQGISNYLNWYQQKPGKAPKLLIYYTSSLHSGVPSRFSGSGSGTDFTFTISSLQPEDIATYYCQQYSKFPWTFGQGTKVEIKR
notes: FSA format, human IgG1/kappa; also called humanized 1C8 H5L1
binding result [1]: no binding

B7: v28723 (antibody, human IgG1, kappa, L234A L235A, V domains shown)
VH: EVQLVESGGGLIQPGGSLRLSCAVSGFSLTTYAISWVRQAPGKGLEWLGIIWPGGGTNYADSVKGRFTISRDNSKNTLYLQMNSLRAEDTAVYYCARGAGTWYFDVWGQGTLVTVSS
VL: DIQMTQSPSSLSASVGDRVTITCSASQGISNYLNWYQQKPGKTVKLLIYYTSSLHSGVPSRFSGSGSGTDYTLTISSLQPEDIATYYCQQYSKFPWTFGQGTKLEIKR
notes: also called humanized 1C8 H6L3
binding result [1]: no binding

B8: v23664 (bispecific antibody, human IgG1, kappa, L234A L235A)
heavy 1: QVQLQESGPGLVQPTQSLSITCTVSGFSLISYGVHWVRQSPGKGLEWLGVIWSGGSTDYNAAFISRLSISKDNSKSQVFFKMNSLQADDTAIYYCARNPLTATVMDYWGQGTSVTVSSASTKGPSVFPLAPSSKSTSGGTAALGCLVKDYFPEPVTVSWNSGALTSGVHTFPAVLQSSGLYSLSSVVTVPSSSLGTQTYICNVNHKPSNTKVDKKVEPKSCDKTHTCPPCPAPEAAGGPSVFLFPPKPKDTLMISRTPEVTCVVVSVSHEDPEVKFNWYVDGVEVHNAKTKPREEQYNSTYRVVSVLTVLHQDWLNGKEYKCKVSNKALPAPIEKTISKAKGQPREPQVYVYPPSRDELTKNQVSLTCLVKGFYPSDIAVEWESNGQPENNYKTTPPVLDSDGSFALVSKLTVDKSRWQQGNVFSCSVMHEALHNHYTQKSLSLSPGGGGGDIVMTQTPSSVSAAVGGTVTIKCQASQTIGSSLAWYQQKPGQPPKLLIYRASTLASGVSSRFRGSGSGTEYTLTISDLECADAATYYCQWTDYGYIYIWAFGGGTEVVVKGGGGSGGGGSGGGGSQEQLVESGGGLVQPEGSLTLTCTASKFSFSSLYYMCWVRQAPGKGLEWIACVYGGSSGNTYYASWAKGRFTISKASSTTVTLQLTSLTAADTATYFCARFDVDGSGFNLWGPGTLVTVSS
heavy 2: QVQLQESGPGLVQPTQSLSITCTVSGFSLISYGVHWVRQSPGKGLEWLGVIWSGGSTDYNAAFISRLSISKDNSKSQVFFKMNSLQADDTAIYYCARNPLTATVMDYWGQGTSVTVSSASTKGPSVFPLAPSSKSTSGGTAALGCLVKDYFPEPVTVSWNSGALTSGVHTFPAVLQSSGLYSLSSVVTVPSSSLGTQTYICNVNHKPSNTKVDKKVEPKSCDKTHTCPPCPAPEAAGGPSVFLFPPKPKDTLMISRTPEVTCVVVSVSHEDPEVKFNWYVDGVEVHNAKTKPREEQYNSTYRVVSVLTVLHQDWLNGKEYKCKVSNKALPAPIEKTISKAKGQPREPQVYVLPPSRDELTKNQVSLLCLVKGFYPSDIAVEWESNGQPENNYLTWPPVLDSDGSFFLYSKLTVDKSRWQQGNVFSCSVMHEALHNHYTQKSLSLSPG
light: DIVMTQSQKFMSTSVGDRVSVTCKASQNVGTNVAWYQQKPGQSPKALIYSASYRDSGVPDRFTGSGSGTDFTLTISNVQSEDLAEYLCQQYNSYPLTFGAGTKLELKRTVAAPSVFIFPPSDEQLKSGTASVVCLLNNFYPREAKVQWKVDNALQSGNSQESVTEQDSKDSTYSLSSTLTLSKADYEKHKVYACEVTHQGLSSPVTKSFNRGEC
notes: also called 5G8 x 1H06 (VLVH) 2x1
Kd [2]: 220 nM | binding result [3]: binds

B9: v23661 (bispecific antibody, human IgG1, kappa, L234A L235A)
heavy 1: QVQLKESGPGLVAPSQSLSITCTVSGFSLTTYAISWVRQPPGKGLEWLGIIWPGGGTNYNSALKSRLSISKDNSRSQVFLKMNSLQTDDTARYYCARGAGTWYFDVWGAGTTVTVSSASTKGPSVFPLAPSSKSTSGGTAALGCLVKDYFPEPVTVSWNSGALTSGVHTFPAVLQSSGLYSLSSVVTVPSSSLGTQTYICNVNHKPSNTKVDKKVEPKSCDKTHTCPPCPAPEAAGGPSVFLFPPKPKDTLMISRTPEVTCVVVSVSHEDPEVKFNWYVDGVEVHNAKTKPREEQYNSTYRVVSVLTVLHQDWLNGKEYKCKVSNKALPAPIEKTISKAKGQPREPQVYVYPPSRDELTKNQVSLTCLVKGFYPSDIAVEWESNGQPENNYKTTPPVLDSDGSFALVSKLTVDKSRWQQGNVFSCSVMHEALHNHYTQKSLSLSPGGGGGDIVMTQTPSSVSAAVGGTVTIKCQASQTIGSSLAWYQQKPGQPPKLLIYRASTLASGVSSRFRGSGSGTEYTLTISDLECADAATYYCQWTDYGYIYIWAFGGGTEVVVKGGGGSGGGGSGGGGSQEQLVESGGGLVQPEGSLTLTCTASKFSFSSLYYMCWVRQAPGKGLEWIACVYGGSSGNTYYASWAKGRFTISKASSTTVTLQLTSLTAADTATYFCARFDVDGSGFNLWGPGTLVTVSS
heavy 2: QVQLKESGPGLVAPSQSLSITCTVSGFSLTTYAISWVRQPPGKGLEWLGIIWPGGGTNYNSALKSRLSISKDNSRSQVFLKMNSLQTDDTARYYCARGAGTWYFDVWGAGTTVTVSSASTKGPSVFPLAPSSKSTSGGTAALGCLVKDYFPEPVTVSWNSGALTSGVHTFPAVLQSSGLYSLSSVVTVPSSSLGTQTYICNVNHKPSNTKVDKKVEPKSCDKTHTCPPCPAPEAAGGPSVFLFPPKPKDTLMISRTPEVTCVVVSVSHEDPEVKFNWYVDGVEVHNAKTKPREEQYNSTYRVVSVLTVLHQDWLNGKEYKCKVSNKALPAPIEKTISKAKGQPREPQVYVLPPSRDELTKNQVSLLCLVKGFYPSDIAVEWESNGQPENNYLTWPPVLDSDGSFFLYSKLTVDKSRWQQGNVFSCSVMHEALHNHYTQKSLSLSPG
light: DIQMTQSTSSLSASVGDRVTISCSASQGISNYLNWYQQKPDGTVKLLIYYTSSLHSGVPSRFSGSGSGTDYSLTISNLEPEDIATYYCQQYSKFPWTFGGGTKLEIKRTVAAPSVFIFPPSDEQLKSGTASVVCLLNNFYPREAKVQWKVDNALQSGNSQESVTEQDSKDSTYSLSSTLTLSKADYEKHKVYACEVTHQGLSSPVTKSFNRGEC
notes: also called 1C8 x 1H06 (VLVH) 2x1
Kd [2]: 535 nM | binding result [3]: binds

B10: v23663 (bispecific antibody, human IgG1, kappa, L234A L235A)
heavy 1: QVQLKESGPGLVAPSQSLSITCTVSGFSLTSYAINWVRQPPGKGLEWLGVLWPGGGTNYNSALKSRLSISKDNSKSQVFLKMNSLQTDDTARYYCARGSGTWYFDVWGAGTTVTVSSASTKGPSVFPLAPSSKSTSGGTAALGCLVKDYFPEPVTVSWNSGALTSGVHTFPAVLQSSGLYSLSSVVTVPSSSLGTQTYICNVNHKPSNTKVDKKVEPKSCDKTHTCPPCPAPEAAGGPSVFLFPPKPKDTLMISRTPEVTCVVVSVSHEDPEVKFNWYVDGVEVHNAKTKPREEQYNSTYRVVSVLTVLHQDWLNGKEYKCKVSNKALPAPIEKTISKAKGQPREPQVYVYPPSRDELTKNQVSLTCLVKGFYPSDIAVEWESNGQPENNYKTTPPVLDSDGSFALVSKLTVDKSRWQQGNVFSCSVMHEALHNHYTQKSLSLSPGGGGGDIVMTQTPSSVSAAVGGTVTIKCQASQTIGSSLAWYQQKPGQPPKLLIYRASTLASGVSSRFRGSGSGTEYTLTISDLECADAATYYCQWTDYGYIYIWAFGGGTEVVVKGGGGSGGGGSGGGGSQEQLVESGGGLVQPEGSLTLTCTASKFSFSSLYYMCWVRQAPGKGLEWIACVYGGSSGNTYYASWAKGRFTISKASSTTVTLQLTSLTAADTATYFCARFDVDGSGFNLWGPGTLVTVSS
heavy 2: QVQLKESGPGLVAPSQSLSITCTVSGFSLTSYAINWVRQPPGKGLEWLGVLWPGGGTNYNSALKSRLSISKDNSKSQVFLKMNSLQTDDTARYYCARGSGTWYFDVWGAGTTVTVSSASTKGPSVFPLAPSSKSTSGGTAALGCLVKDYFPEPVTVSWNSGALTSGVHTFPAVLQSSGLYSLSSVVTVPSSSLGTQTYICNVNHKPSNTKVDKKVEPKSCDKTHTCPPCPAPEAAGGPSVFLFPPKPKDTLMISRTPEVTCVVVSVSHEDPEVKFNWYVDGVEVHNAKTKPREEQYNSTYRVVSVLTVLHQDWLNGKEYKCKVSNKALPAPIEKTISKAKGQPREPQVYVLPPSRDELTKNQVSLLCLVKGFYPSDIAVEWESNGQPENNYLTWPPVLDSDGSFFLYSKLTVDKSRWQQGNVFSCSVMHEALHNHYTQKSLSLSPG
light: DIQMTQTTSSLSASLGDRVTFSCSASQGISNYLNWYQQKPDGTVKLLIYYTSSLHLGVPSRFSGSGSGTDYSLTISNLEPEDIATYYCQQYSKLPWTFGGGTKLEIKRTVAAPSVFIFPPSDEQLKSGTASVVCLLNNFYPREAKVQWKVDNALQSGNSQESVTEQDSKDSTYSLSSTLTLSKADYEKHKVYACEVTHQGLSSPVTKSFNRGEC
notes: also called 4E6 x 1H06 (VLVH) 2x1
Kd [2]: 502 nM | binding result [3]: binds
